Here are results for 24 molecules from US8969060B2, “Modified glucose dehydrogenase” (Ikeda Food Research Co., Ltd., priority 2011, dated 2015).

Substitutions are numbered along the chain they refer to. Numbers in names are those of the source. Where “and” joins values, the source holds several entries; their conditions need not be identical. Equal entries are not always repeated.

B1: G352C: modified GLD: SEQ ID NO: 1 with substitution G352C (protein, listed as Aspergillus terreus)
chain: MLGKLSFLSALSLAVAAPLSNSTSAKYDYIVIGGGTSGLAVANRLSEDPNVNVLILEAGGSVWNNPNVTNVDGYGLAFGSDIDWQYQSVNQPYGGNLSQVLRAGKALGGTSTINGMAYTRAEDVQIDAWETIGNTGWTWKNLFPYYRKSENFTVPTKSQTSLGASYEAGAHGHEGPLDVAFTQIESNNLTTYLNRTFQGMGLPWTEDVNGGKMRGFNLYPSTVNLEEYVREDAARAYYWPYKSRPNLHVLLNTFANRIVWDGEAHDGHITASGVEITSRNGTVRVINAEKEVIVSAGALKSPAILELSGIGNPSVLDKHNIPVKVNLPTVGENLQDQVNSHMDASGNTSISCTKAVSYPDVYDVFGDEAESVAKQIRANLKQYAADTAKANGNIMKAADLERLFEVQYDLIFKGRVPIAEVLNYPGSATSVFAEFWALLPFARGSVHIGSSNPAEFPVINPNYFMLDWDAKSYVAVAKYIRRSFESYPLSSIVKESTPGYDVIPRNASEQSWKEWVFDKNYRSNFHPVGTAAMMPREIGGVVDERLNVYGTTNVRVVDASVLPFQVCGHLVSTLYAVAERAADLIKADAGRR
modifications: SIGNAL (1)..(19)
B2: F432M: modified GLD: SEQ ID NO: 1 with substitution F432M (protein, listed as Aspergillus terreus)
chain: B1 chain with C352G, F432M
modifications: SIGNAL (1)..(19)
B3: G426M: modified GLD: SEQ ID NO: 1 with substitution G426M (protein, listed as Aspergillus terreus)
chain: B1 chain with C352G, G426M
modifications: SIGNAL (1)..(19)
B4: G426L: modified GLD: SEQ ID NO: 1 with substitution G426L (protein, listed as Aspergillus terreus)
chain: B1 chain with C352G, G426L
modifications: SIGNAL (1)..(19)
B5: V431F: modified GLD: SEQ ID NO: 1 with substitution V431F (protein, listed as Aspergillus terreus)
chain: B1 chain with C352G, V431F
modifications: SIGNAL (1)..(19)
B6: F432K: modified GLD: SEQ ID NO: 1 with substitution F432K (protein, listed as Aspergillus terreus)
chain: B1 chain with C352G, F432K
modifications: SIGNAL (1)..(19)
B7: G426V: modified GLD: SEQ ID NO: 1 with substitution G426V (protein, listed as Aspergillus terreus)
chain: B1 chain with C352G, G426V
modifications: SIGNAL (1)..(19)
B8: G426H: modified GLD: SEQ ID NO: 1 with substitution G426H (protein, listed as Aspergillus terreus)
chain: B1 chain with C352G, G426H
modifications: SIGNAL (1)..(19)
B9: G426T: modified GLD: SEQ ID NO: 1 with substitution G426T (protein, listed as Aspergillus terreus)
chain: B1 chain with C352G, G426T
modifications: SIGNAL (1)..(19)
B10: G352D: modified GLD: SEQ ID NO: 1 with substitution G352D (protein, listed as Aspergillus terreus)
chain: B1 chain with C352D
modifications: SIGNAL (1)..(19)
B11: F432T: modified GLD: SEQ ID NO: 1 with substitution F432T (protein, listed as Aspergillus terreus)
chain: B1 chain with C352G, F432T
modifications: SIGNAL (1)..(19)
B12: G426E: modified GLD: SEQ ID NO: 1 with substitution G426E (protein, listed as Aspergillus terreus)
chain: B1 chain with C352G, G426E
modifications: SIGNAL (1)..(19)
B13: G426F: modified GLD: SEQ ID NO: 1 with substitution G426F (protein, listed as Aspergillus terreus)
chain: B1 chain with C352G, G426F
modifications: SIGNAL (1)..(19)
B14: G426R: modified GLD: SEQ ID NO: 1 with substitution G426R (protein, listed as Aspergillus terreus)
chain: B1 chain with C352G, G426R
modifications: SIGNAL (1)..(19)
B15: G426K: modified GLD: SEQ ID NO: 1 with substitution G426K (protein, listed as Aspergillus terreus)
chain: B1 chain with C352G, G426K
modifications: SIGNAL (1)..(19)
B16: F432V: modified GLD: SEQ ID NO: 1 with substitution F432V (protein, listed as Aspergillus terreus)
chain: B1 chain with C352G, F432V
modifications: SIGNAL (1)..(19)
B17: G426W: modified GLD: SEQ ID NO: 1 with substitution G426W (protein, listed as Aspergillus terreus)
chain: B1 chain with C352G, G426W
modifications: SIGNAL (1)..(19)
B18: G426I: modified GLD: SEQ ID NO: 1 with substitution G426I (protein, listed as Aspergillus terreus)
chain: B1 chain with C352G, G426I
modifications: SIGNAL (1)..(19)
B19: G426Y: modified GLD: SEQ ID NO: 1 with substitution G426Y (protein, listed as Aspergillus terreus)
chain: B1 chain with C352G, G426Y
modifications: SIGNAL (1)..(19)
B20: F432I: modified GLD: SEQ ID NO: 1 with substitution F432I (protein, listed as Aspergillus terreus)
chain: B1 chain with C352G, F432I
modifications: SIGNAL (1)..(19)
B21: G426S: modified GLD: SEQ ID NO: 1 with substitution G426S (protein, listed as Aspergillus terreus)
chain: B1 chain with C352G, G426S
modifications: SIGNAL (1)..(19)
B22: G426P: modified GLD: SEQ ID NO: 1 with substitution G426P (protein, listed as Aspergillus terreus)
chain: B1 chain with C352G, G426P
modifications: SIGNAL (1)..(19)
B23: F432Q: modified GLD: SEQ ID NO: 1 with substitution F432Q (protein, listed as Aspergillus terreus)
chain: B1 chain with C352G, F432Q
modifications: SIGNAL (1)..(19)
B24: G426N: modified GLD: SEQ ID NO: 1 with substitution G426N (protein, listed as Aspergillus terreus)
chain: B1 chain with C352G, G426N
modifications: SIGNAL (1)..(19)

A short description of the first data set: Relative enzymatic activity of GLD (DCIP/1-m-PMS, plate reader, yeast culture supernatant) with 1,10-phenanthroline present. The class given is biochemical. The note with it: site-specific mutants, inhibitor final concentration 1 mM. A digest of the protocol: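 Inhibitor at 1 mM final substitutes for the methanol in the reagent, and the sample rate is expressed as % of the inhibitor-free blank. Rates come from ΔA600/min of DCIP with glucose and 1-m-PMS at pH 7.0, using supernatants of YPD-grown yeast clones (24 h, 30° C.).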
With B1, the “Relative Activity [%] 1,10-Phenanthroline” value stood at 86.2%.
Still for that read-out and setting: the value for B2 was 62.5% and 74.2%; that for B3 was 78.3%; that for B4 was 91.2%.
On to B5, for which the “Relative Activity [%] 1,10-Phenanthroline” value was determined as 82.1%.
B6: the “Relative Activity [%] 1,10-Phenanthroline” value is 92.1%.
Take B7: the “Relative Activity [%] 1,10-Phenanthroline” value came to 90.3%.
Turning to B8, the “Relative Activity [%] 1,10-Phenanthroline” value is 54.9%.
As for B9, the “Relative Activity [%] 1,10-Phenanthroline” value worked out at 88.5%.
In the case of B10, the “Relative Activity [%] 1,10-Phenanthroline” value amounted to 87.8%.
As to B11, the “Relative Activity [%] 1,10-Phenanthroline” value was 89.9%.
Regarding B12, the “Relative Activity [%] 1,10-Phenanthroline” value was 64.4%.
The same measure, in the same setting: the value for B13 was 60.5%; that for B14 was 71.5%; that for B15 was 94.3%.
On the same count and under the same terms, the value for B16 was 80.2%; that for B17 was 61.0%.
As to B18, the “Relative Activity [%] 1,10-Phenanthroline” value worked out at 93.2%.
Take B19: the “Relative Activity [%] 1,10-Phenanthroline” value is 61.6%.
Same read-out and setting: to B20 belongs 91.8%; to B21, 80.9%.
The same measure, in the same setting: the value for B22 was 56.1%.
As to B23, the “Relative Activity [%] 1,10-Phenanthroline” value stood at 59.3%.
Turning to B24, the “Relative Activity [%] 1,10-Phenanthroline” value is recorded as 69.6%.

A further data set in a line: Relative enzymatic activity of GLD (DCIP/1-m-PMS, plate reader, yeast culture supernatant) with proflavin hydrochloride present. Type of data set: biochemical. The note with it: site-specific mutants, inhibitor final concentration 1 mM. A digest of the protocol: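 Culture supernatant diluted and mixed with reagent of phosphate buffer pH 7.0, 1.0 M D-glucose, 3 mM DCIP, 3 mM 1-m-PMS and methanol (0.1:1:0.14:0.2:0.06). DCIP absorbance decrease at 600 nm followed; proflavin hydrochloride in methanol replaced methanol at 1 mM final. Activity expressed as % of inhibitor-free blank.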
As for B1, the “Relative Activity [%] Proflavin hydrochloride” value turned out to be 43.8%.
With B2, the “Relative Activity [%] Proflavin hydrochloride” value was 71.1% and 66.1%.
Consider B3, for which the “Relative Activity [%] Proflavin hydrochloride” value was determined as 58.8%.
With B4, the “Relative Activity [%] Proflavin hydrochloride” value is recorded as 63.7%.
For B5, the “Relative Activity [%] Proflavin hydrochloride” value was determined as 57.7%.
As for B6, the “Relative Activity [%] Proflavin hydrochloride” value was determined as 79.3%.
Consider B7, for which the “Relative Activity [%] Proflavin hydrochloride” value is listed as 59.9%.
In the case of B8, the “Relative Activity [%] Proflavin hydrochloride” value is 48.7%.
Turning to B9, the “Relative Activity [%] Proflavin hydrochloride” value worked out at 58.4%.
For B10, the “Relative Activity [%] Proflavin hydrochloride” value was 42.7%.
For B11, the “Relative Activity [%] Proflavin hydrochloride” value stood at 80.2%.
For B12, the “Relative Activity [%] Proflavin hydrochloride” value turned out to be 32.6%.
The same measure, in the same setting: to B13 belongs 51.8%.
Regarding B14, the “Relative Activity [%] Proflavin hydrochloride” value is 43.0%.
As for B15, the “Relative Activity [%] Proflavin hydrochloride” value was 65.4%.
As to B16, the “Relative Activity [%] Proflavin hydrochloride” value was 70.3%.
The same measure, in the same setting: the value for B17 was 47.8%.
As for B18, the “Relative Activity [%] Proflavin hydrochloride” value turned out to be 63.4%.
Same read-out and setting: the value for B19 was 47.5%; that for B20 was 80.9%.
Consider B21, for which the “Relative Activity [%] Proflavin hydrochloride” value turned out to be 58.0%.
In the case of B22, the “Relative Activity [%] Proflavin hydrochloride” value stood at 33.3%.
Turning to B23, the “Relative Activity [%] Proflavin hydrochloride” value is listed as 67.3%.
B24: the “Relative Activity [%] Proflavin hydrochloride” value came to 51.9%.
